Test results taken from the supplement of paper PMC10567573.

B1: EPB41L3 (parent)
chain: GSKFRYSGRTQAQTRRASALIDRP

Variants of: B1
Assay: protein stability index of a GFP-peptide fusion (GPS, HEK-293T) (PSI 1-6); higher = more stable
Details: c terminus: a fixed tail appended
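Note: lentivirally expressed fusions sorted by FACS into six bins by GFP to DsRed ratio, PSI derived from sequencing read proportions per bin multiplied by bin number.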

Protein stability index: each site, then its substitutions
I21: E 3.4; F 2.97; P 2.71; A 3.78; L 3.17; W 2.4; Q 3.06; K 3.48; V 3.2; D 3.58; N 3.95; M 3.6; H 3.32; R 3.71; T 3.21; Y 2.73; G 3.9; C 2.64; S 3
P24: Q 2.79; E 3.19; W 2.32; T 3.05; Y 2.78; D 3.56; H 3.47; S 2.8; G 3.32; C 3.06; N 2.8; A 2.57; I 2.71; L 2.56; M 3; V 3.05; K 3.44; R 3.54; F 3.05
L20: V 3.52; M 3.59; Q 3.79; G 3.16; N 3.78; W 3.23; C 3.12; T 3.62; D 3.84; I 3.19; E 3.89; H 3.37; R 3.28; A 3.29; F 2.65; P 3.15; Y 3.02; S 3.46; K 3.79
S18: R 3.08; Q 3.19; W 2.58; N 3.25; H 3.42; E 3.62; F 2.16; M 2.71; L 3.01; T 2.29; P 3.73; G 3.54; Y 2.27; K 3.29; D 3.52; V 2.85; C 2.5; A 3.02; I 2.7
R15: F 2.44; Q 2.9; L 2.64; K 2.83; A 3.25; G 2.81; D 3.2; W 2.45; H 2.97; M 3.21; E 3.57; C 2.06; P 3.3; Y 2.54; I 2.66; T 3.58; S 2.81; N 3.68; V 2.99
A19: R 3.43; I 3.04; Q 3.22; T 3.3; Y 2.07; V 2.42; H 3.26; S 3.41; W 2.45; C 2.74; K 3.39; E 3.28; G 2.91; M 3.07; P 2.68; F 2.41; L 3.12; N 3.4; D 3.6
Q13: D 3.08; M 2.47; S 3.27; V 3.53; Y 2.46; A 2.84; N 3.39; E 3.27; H 2.65; F 2.69; C 2.98; R 3.25; K 3.19; T 2.73; P 2.69; I 2.9; G 3.49; W 1.97; L 2.91
R16: Q 3.31; C 2.52; E 3.34; T 3.4; L 3.11; P 3.15; F 2.9; G 3.87; N 3.42; M 2.67; K 2.83; H 3.32; W 2.41; V 2.34; A 2.63; I 2.72; D 3.56; Y 2.78; S 3.08
A12: V 1.93; L 3.38; S 3.41; N 3.08; Y 2.89; I 3.07; M 2.73; R 3.42; Q 3.06; P 3.17; H 2.82; T 2.93; W 2.25; K 3.15
A17: M 3.02; W 2.21; Q 3.58; D 3.41; L 2.65; Y 2.54; F 2.52; H 2.57; G 3.22; S 3.12; T 2.99; P 2.96; I 3.25; V 2.66; N 3.19; C 2.09; E 3.54; R 3.25; K 3.16
T14: L 2.7; M 2.29; I 2.69; F 2.8; D 3.41; C 1.88; Q 2.81; V 3.19; N 3.72; H 2.77; R 3.44; Y 2.73; A 3.25; E 3.21; S 2.67; W 2.22; G 3.17; P 2.62; K 3.44
R23: G 3.01; M 2.41; E 3.32; Q 3.12; I 2.11; F 2.69; V 2.67; A 2.81; D 3.44; K 2.94; C 2.89; H 3.16; T 2.58; W 2.77; S 3.01; P 3.02; L 2.71; Y 2.5; N 2.67
D22: Y 2.29; H 3.7; R 3.45; A 2.63; P 3.09; E 3.72; T 3.02; S 3.11; L 2.99; K 2.7; V 2.66; Q 3.54; G 2.67; I 2.83; W 2.72; M 2.69; F 3.4; C 2.99; N 2.82
